Paper PMC12855940

Molecular target: tau 2N4R (tau-441) wild type (human, UniProt P10636-8 1-441)
Assay: EMSA

B1: 24-bp dsDNA (dsDNA)
DNA 1: TCGACACGGAAATGTTGAATACTA
DNA 2: TAGTATTCAACATTTCCGTGTCGA
Does B1 bind?
Result: binds
